Two molecules from publication PMC13241479, “GPLD1 is a scavenger carrier mediating lysosomal degradation of extracellular aberrant proteins” (Life Science Alliance, 2026) can be followed below.

This assay concerns the target T1, GPLD1-mCherry-sfGFP-His (glycosylphosphatidylinositol-specific phospholipase D1) (human, UniProt P80108 24-840).
T1 construct: glycosylphosphatidylinositol-specific phospholipase D1, human, full-length cDNA amplified from HepG2 cells; fusion of about 160 kD; also called GPLD1-RG; GPLD1-RFP-GFP; not shown: mCherry, C-terminal, kept; sfGFP, C-terminal, kept; His, C-terminal, kept
T1 sequence (looked up): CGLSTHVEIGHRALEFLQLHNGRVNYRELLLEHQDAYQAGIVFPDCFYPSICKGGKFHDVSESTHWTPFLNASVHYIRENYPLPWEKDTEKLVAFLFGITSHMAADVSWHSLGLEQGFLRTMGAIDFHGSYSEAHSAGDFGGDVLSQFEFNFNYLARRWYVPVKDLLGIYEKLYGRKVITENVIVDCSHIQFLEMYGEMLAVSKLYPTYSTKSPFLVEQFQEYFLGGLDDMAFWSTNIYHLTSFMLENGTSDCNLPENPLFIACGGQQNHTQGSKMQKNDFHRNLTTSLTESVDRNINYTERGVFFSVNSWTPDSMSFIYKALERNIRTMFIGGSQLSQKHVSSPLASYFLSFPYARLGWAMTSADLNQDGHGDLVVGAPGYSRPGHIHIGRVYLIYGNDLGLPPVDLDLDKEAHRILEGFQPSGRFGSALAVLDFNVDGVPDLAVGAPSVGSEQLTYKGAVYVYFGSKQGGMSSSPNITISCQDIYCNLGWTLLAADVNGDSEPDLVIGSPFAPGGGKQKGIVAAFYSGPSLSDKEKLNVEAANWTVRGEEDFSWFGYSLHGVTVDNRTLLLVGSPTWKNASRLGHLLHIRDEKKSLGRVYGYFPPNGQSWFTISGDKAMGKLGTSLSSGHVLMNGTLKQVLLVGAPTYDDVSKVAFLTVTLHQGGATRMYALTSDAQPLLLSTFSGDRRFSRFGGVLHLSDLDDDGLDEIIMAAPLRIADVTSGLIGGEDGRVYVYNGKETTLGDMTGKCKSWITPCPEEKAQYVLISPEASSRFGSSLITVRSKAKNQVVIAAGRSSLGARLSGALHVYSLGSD
Put plainly: co-IP; purified GPLD1-RG (40 nM) or clusterin-RG mixed with His-ALFA-SAA1 (500 nM) or ALFA-tagged Ab42 in PBS, 37°C with shaking for 2 h; aggregates removed at 20,000g; ALFA nanobody beads 2 h at 4°C; washed four times with PBS; immunoblot. As to conditions: both partners purified. A general note: In western blotting, separated proteins are transferred to a membrane and probed.

B1: His-ALFA-SAA1-Full length (human SAA1 19-122 aa) (natural protein, UniProt P0DJI8 19-122, looked up)
chain: RSFFSFLGEAFDGARDMWRAYSDMREANYIGSDKYFHARGNYDAAKRGPGGAWAAEVITDARENIQRFFGHGAEDSLADQAANEWGRSGKDPNHFRPAGLPEKY
notes: The purification of the native full-length form is not described in the methods (only SAA1-N and Ab42 from inclusion bodies); source: E. coli BL21(DE3) pLysS, recombinant, used native; not shown: His, N-terminal, kept; ALFA, N-terminal, kept
For B1, the binding result is “binds”.

B2: His-ALFA-SAA1-N terminus (human SAA1 19-94 aa) (domain or fragment, UniProt P0DJI8 19-94, looked up)
chain: RSFFSFLGEAFDGARDMWRAYSDMREANYIGSDKYFHARGNYDAAKRGPGGAWAAEVITDARENIQRFFGHGAEDS
notes: serum amyloid A1, human, residues 19-94; the N-terminal 76 aa residues, the core amyloidogenic fragment; Prepared in 8 M urea-denatured form for all experiments; aggregates on dilution into PBS; also called His-ALFA-tagged SAA1-N; source: E. coli BL21(DE3) pLysS, purified from inclusion bodies under denaturing conditions (8 M urea, Co-NTA); not shown: His, N-terminal, kept; ALFA, N-terminal, kept
Take B2: the binding result was “binds”.
